Assay results: PMC4059961, “The transcriptional network of WRKY53 in cereals links oxidative responses to biotic and abiotic stress inputs”

B1: ORK10 promoter probe (dsDNA)
DNA 1: ATCTGGTCAACAATGTATTACACACTGCTTTGACTACTTCCCCCAAAAAAGTACACACTGCTTTGACTCAGGTCAAACTT
DNA 2: AAGTTTGACCTGAGTCAAAGCAGTGTGTACTTTTTTGGGGGAAGTAGTCAAAGCAGTGTGTAATACATTGTTGACCAGAT
B2: POC1 promoter probe (dsDNA)
DNA 1: ACGTAAATTTTTTGAATAAGACAAATGGTCAAACATGTAAGAAAAGAAAGTCAACGGCGTCATCTATTTAAAAAACGGAT
DNA 2: ATCCGTTTTTTAAATAGATGACGCCGTTGACTTTCTTTTCTTACATGTTTGACCATTTGTCTTATTCAAAAAATTTACGT

Biological target: SUMO::TaWRKY53 (Triticum aestivum L. cv. Gamtoos-R)
Test: EMSA; Probe EMSA: 10 mM Tris, 50 mM KCl, 1 mM DTT, pH 7.5, 20 min, room temperature; 1-kb EMSA: 10 mM Tris, 100 mM KCl, 1 mM EDTA, 0.1 mM DTT, 5% glycerol, 0.01 mg/mL BSA, pH 7.5, room temperature
Conditions: protein: recombinant; tags: N-terminal 6xHis-SUMO; label: biotin; blunt

SUMO::TaWRKY53 (Triticum aestivum L. cv. Gamtoos-R), sequence (chain, as listed by the source): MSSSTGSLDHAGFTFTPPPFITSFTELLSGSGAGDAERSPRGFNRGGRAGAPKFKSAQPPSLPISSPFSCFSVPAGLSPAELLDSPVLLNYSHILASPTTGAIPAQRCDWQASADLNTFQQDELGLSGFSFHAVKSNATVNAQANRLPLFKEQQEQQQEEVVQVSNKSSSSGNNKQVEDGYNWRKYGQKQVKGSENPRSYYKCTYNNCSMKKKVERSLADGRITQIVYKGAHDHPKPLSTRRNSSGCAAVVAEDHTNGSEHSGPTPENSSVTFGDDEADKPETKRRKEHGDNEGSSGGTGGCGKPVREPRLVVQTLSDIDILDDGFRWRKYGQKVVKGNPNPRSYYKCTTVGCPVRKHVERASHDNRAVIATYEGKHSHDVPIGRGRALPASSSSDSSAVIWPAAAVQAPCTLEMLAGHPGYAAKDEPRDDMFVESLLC

Binder | binding result
B1 | binds
B2 | binds
